According to US20240343800A1 (Merck KGaA, published 2024):

Legend:
[1] = target: T1, human ROR1 (on cells) (human, UniProt Q01973 30-937); assay: cell-based or functional assay
[2] = target: T1, human ROR1 (on cells); assay: cell-based or functional assay; remark: listed apart in the source
[3] = target: T1, human ROR1 (on cells); assay: cell-based or functional assay; remark: listed apart in the source
[4] = target: T1, human ROR1 (on cells); assay: flow cytometry, MDA-MB-231 cells
Experimental: (§1) After washing twice with 200 μL of phosphate buffered saline (PBS) by centrifugation at 500×g for 5 minutes at room temperature, the cells were resuspended in 100 μL of Live/Dead fixable green working buffer (ThermoFisher Scientific, Cat No: L23101; one vial of Live/Dead fixable green powder was dissolved into 50 μL of DMSO and 1 μL of dissolved Live/Dead fixable green was added to 1 mL of PBS to prepare the working buffer). After 15-minutes of incubation at room temperature, the cells were washed twice with 200 μL of PBS by centrifugation at 500×g for 5 minutes at room temperature and resuspended in […] of 10% goat serum in BD staining buffer (BD Biosciences, Cat No: 554657). […] The plates were then covered with foil to avoid direct light and incubated for 60 minutes at 4° C. […] After incubating for 30 minutes at 4° C., the cells were washed twice with 200 μL of PBS by centrifugation at 500×g for 5 minutes at room temperature and resuspended into 100 μL of fixation buffer (BioLegend, Cat No: 420801). The samples were then analyzed on a flow cytometer for binding signal using FlowJo software. ROR and CD3 binding EC₅₀s (concentration vs mean fluorescence intensity (MFI)) for reference molecules and test bispecific TCEs were obtained using 4-parameter non-linear regression curve fitting in GraphPad Prism.

[5] = target: T2, cynomolgus CD3 (on cynomolgus pan-T cells) (cynomolgus, UniProt Q95LI5 22-198); assay: flow cytometry, cynomolgus pan-T cells
T2 construct: whole, on cells
Experimental: as §1

[6] = target: T1, human ROR1 (on cells); assay: flow cytometry, MDA-MB-231 cells; reference: Ref. Frz-binding TCE
Experimental: as §1

[7] = target: T1, human ROR1 (on cells); assay: cell-based or functional assay; remark: listed apart in the source
[8] = target: T3, human CD3 (on Jurkat T cells or human CD8+ T cells) (human, UniProt P07766 23-207; P09693 23-182; P04234 22-171; P20963 22-164); assay: flow cytometry, Jurkat T cells
T3 construct: Entries are printed with signal peptides; also called huCD3; CD3ε
Experimental: as §1

T3 sequence (P07766 23-207 limits assumed, chain 1 of 4): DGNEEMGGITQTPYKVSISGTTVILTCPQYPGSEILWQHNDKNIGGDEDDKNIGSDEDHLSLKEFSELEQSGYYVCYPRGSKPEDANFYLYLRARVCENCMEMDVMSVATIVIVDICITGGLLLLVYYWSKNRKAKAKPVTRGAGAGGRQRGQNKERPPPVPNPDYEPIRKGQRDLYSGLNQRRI
T3 sequence (P09693 23-182 limits assumed, chain 2 of 4): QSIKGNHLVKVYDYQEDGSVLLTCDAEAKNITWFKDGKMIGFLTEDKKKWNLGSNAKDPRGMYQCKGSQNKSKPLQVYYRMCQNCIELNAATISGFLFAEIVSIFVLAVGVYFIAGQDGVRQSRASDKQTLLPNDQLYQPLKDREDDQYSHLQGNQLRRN
T3 sequence (P04234 22-171 limits assumed, chain 3 of 4): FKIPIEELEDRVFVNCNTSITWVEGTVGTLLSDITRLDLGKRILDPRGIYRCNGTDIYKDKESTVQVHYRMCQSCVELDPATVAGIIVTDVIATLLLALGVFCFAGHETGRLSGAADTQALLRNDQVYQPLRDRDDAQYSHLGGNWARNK
T3 sequence (P20963 22-164 limits assumed, chain 4 of 4): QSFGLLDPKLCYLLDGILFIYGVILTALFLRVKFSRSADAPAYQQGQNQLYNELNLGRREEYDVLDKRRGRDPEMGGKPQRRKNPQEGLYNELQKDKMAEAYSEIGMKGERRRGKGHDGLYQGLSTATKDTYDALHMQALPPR
T2 sequence (Q95LI5 22-198): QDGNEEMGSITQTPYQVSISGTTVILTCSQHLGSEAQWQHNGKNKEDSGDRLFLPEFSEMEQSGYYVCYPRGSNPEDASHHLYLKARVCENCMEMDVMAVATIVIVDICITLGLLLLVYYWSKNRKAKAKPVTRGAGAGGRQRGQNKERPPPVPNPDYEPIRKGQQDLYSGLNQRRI

B1: bispecific TCE 69A02 in Format 1A (bispecific antibody)
heavy 1: EVQLVESGGGLVQPGGSLRLSCAASGFTFNTYAMNWVRQAPGKGLEWVARIRSKYNNYATYYADSVKDRFTISRDDSKNTLYLQMNSLRAEDTAVYYCVRHGNFGNSYVSWFAYWGQGTMVTVSSASTKGPSVFPLAPSSKSTSGGTAALGCLVKDYFPEPVTVSWNSGALTSGVHTFPAVLQSSGLYSLSSVVTVPSSSLGTQTYICNVNHKPSNTKVDKKVEPKSCDKTHTCPPCPAPPVAGPSVFLFPPKPKDTLMISRTPEVTCVVVDVSHEDPEVKFNWYVDGVEVHNAKTKPREEQYNSTYRVVSVLTVLHQDWLNGKEYKCAVSNKALAAPIEKTISKAKGQPFRPEVHLLPPSREEMTKNQVSLTCLARGFYPKDIAVEWESNGQPENNYKTTPSRQEPSQGTTTFAVTSKLTVDKSRWQQGNVFSCSVMHEALHNHYTQKTISLSPGK
heavy 2: ETTLTQSPATLSVSPGETATLSCRASQSVSSNLAWYQQKPGQAPRLLIYGASTRATGIPATFSGSGSGTEFTLTISSLQSEDFAIYYCQQYKNWPPAFGGGTELEIKGGGGSGGGGSGGGGSGGGGSQVTLKESGPTLVKPTQTLTLTCSFSGFSITTSGVSVGWIRQPPGKALEWLALIYWDDDKRYSPSLKSRLTITRDTSKNQVVLTMTNMDPVDTATYYCAHAPRYTPGGYFDYWGQGTLVTVSSEPKSSDKTHTCPPCPAPPVAGPSVFLFPPKPKDTLMISRTPEVTCVVVDVSHEDPEVKFNWYVDGVEVHNAKTKPREEQYNSTYRVVSVLTVLHQDWLNGKEYKCAVSNKALAAPIEKTISKAKGQPREPQVYTLPPPSEELALNELVTLTCLVKGFYPSDIAVEWLQGSQELPREKYLTWAPVLDSDGSFFLYSILRVAAEDWKKGDTFSCSVMHEALHNRFTQKSLDRSPGKGGGGSGGGGSGGGGSGGGGSETTLTQSPATLSVSPGETATLSCRASQSVSSNLAWYQQKPGQAPRLLIYGASTRATGIPATFSGSGSGTEFTLTISSLQSEDFAIYYCQQYKNWPPAFGGGTELEIKGGGGSGGGGSGGGGSGGGGSQVTLKESGPTLVKPTQTLTLTCSFSGFSITTSGVSVGWIRQPPGKALEWLALIYWDDDKRYSPSLKSRLTITRDTSKNQVVLTMTNMDPVDTATYYCAHAPRYTPGGYFDYWGQGTLVTVSS
light: QAVVTQEPSLTVSPGGTVTLTCRSSTGAVTTSNYANWVQQKPGQAPRGLIGGTNKRAPGTPARFSGSLLGGKAALTLSGVQPEDEAEYYCALWYSNLWVFGGGTKLTVLGQPKAAPSVTLFPPSSEELQANKATLVCLISDFYPGAVTVAWKADSSPVKAGVETTTPSKQSNNKYAASSYLSLTPEQWKSHRSYSCQVTHEGSTVEKTVAPTECS
notes: also called 69A02 TCE 1A; 69A02x1F3.5
- EC50 of IFNγ release, human CD8+ T cells + ROR1+ MDA-MB-231 [1]: 0.0215 nM
- TDCC EC50, PBMCs + ROR1+ MDA-MB-231 cells [2]: 0.0194 nM
- EC50 of target cell killing (TDCC), human CD8+ T cells + ROR1+ MDA-MB-231 [3]: 0.0202 nM
- EC50 [4]: 0.23 nM
- EC50 [5]: 13.4 nM
- fold higher apparent binding affinity [6]: > 30 fold
- IFNγ release EC50, PBMCs + ROR1+ MDA-MB-231 cells [7]: 0.0876 nM
- EC50 [8]: 10.4 nM
